Positions count from the first letter of the chain named. Names may count otherwise.
Assays:
NFIL3 bZIP (long) = molecular target: T1, NFIL3 bZIP (long) (human, UniProt Q16649 65-161); assay: ITC; ITC: 20 mM Tris pH 7.5, 150 mM NaCl, 25 °C; EMSA: same buffer, 4 °C, 6% native gel in 0.5x TBE; details: protein: recombinant, tags: His6-SUMO removed by TEV, chain copies: 2, blunt
T1 sequence: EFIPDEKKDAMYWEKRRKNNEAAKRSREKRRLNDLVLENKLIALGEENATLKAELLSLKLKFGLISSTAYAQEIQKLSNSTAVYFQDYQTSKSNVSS

[1] = molecular target: the molecule itself; assay: SEC; Superdex 200 10/300 GL, 20 mM Tris pH 7.5, 150 mM NaCl; NFIL3 bZIP domain WT 2 mg/ml apo and NFIL3 mutants, against protein standard
C/EBPβ bZIP = C/EBPβ bZIP (human, UniProt P17676 259-336); assay: ITC; ITC: 20 mM Tris pH 7.5, 150 mM NaCl, 25 °C; EMSA: same buffer, 4 °C, 6% native gel in 0.5x TBE; details: protein: recombinant; tags: His6-SUMO removed by TEV; chain copies: 2; blunt
Sequence of C/EBPβ bZIP (P17676 259-336): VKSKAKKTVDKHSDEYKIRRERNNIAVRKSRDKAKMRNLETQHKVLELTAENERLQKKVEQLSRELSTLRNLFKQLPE

NFIL3 bZIP (short) = molecular target: T2, NFIL3 bZIP (short) (human, UniProt Q16649 65-136); assay: as above; details: protein: recombinant; tags: His6-SUMO removed by TEV; chain copies: 2; blunt
T2 sequence: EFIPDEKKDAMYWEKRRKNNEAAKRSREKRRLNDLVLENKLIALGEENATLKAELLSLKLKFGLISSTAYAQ

C/EBPα bZIP = C/EBPα bZIP (human, UniProt P49715 281-340); assay: as above; details: protein: recombinant; tags: His6-SUMO removed by TEV; chain copies: 2; blunt
Sequence of C/EBPα bZIP (P49715 281-340): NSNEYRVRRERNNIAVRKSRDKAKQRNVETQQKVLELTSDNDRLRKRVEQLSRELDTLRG

C/EBPζ bZIP = C/EBPζ bZIP (human, UniProt P35638 88-162); assay: as above; details: protein: recombinant; tags: His6-SUMO removed by TEV; chain copies: 2; blunt
[2] = molecular target: the molecule itself; assay: SEC; gel filtration chromatography of the recombinant C/EBPζ bZIP domain; conditions not told for this protein

B1: TcACGTAA (dsDNA)
DNA 1: CATCACGTAATG
DNA 2: CATTACGTGATG
- Kd (NFIL3 bZIP (long)): 1660 ± 110 nM

B2: TTAtGTAA (dsDNA)
DNA 1: CATTATGTAATG
DNA 2: CATTACATAATG
- Kd (NFIL3 bZIP (long)): 520 ± 30 nM

B3: NFIL3 bZIP domain (aa 65-161) (domain or fragment, human, UniProt Q16649 65-161, looked up)
chain: T1 sequence
notes: human NFIL3, bZIP domain, residues 65-161 (canonical bZIP helix aa 73-126 and an extra short helix aa 131-146); The methods of the size-exclusion run say only 'NFIL3 bZIP domain WT'; also called E4BP4; nuclear factor interleukin-3 regulated protein; source: E. coli BL21 (DE3), purified (Ni-NTA, TEV, anion exchange, gel filtration); not shown: His6, N-terminal, cleaved; SUMO, N-terminal, cleaved
- stoichiometry N [1]: 2

B4: NFIL3 bZIP domain N112D mutant (domain or fragment, human, UniProt Q16649 65-161, looked up)
chain: T1 sequence with N48D
notes: human NFIL3, bZIP domain, residues 65-161 with N112D; also called NFIL3 (N112D); source: E. coli BL21 (DE3), purified as the wild-type protein; not shown: His6, N-terminal, cleaved; SUMO, N-terminal, cleaved
- stoichiometry N [1]: 2

B5: mutated flanking DNA (dsDNA)
DNA 1: CGTTACGTAATG
DNA 2: CATTACGTAACG
- Kd (NFIL3 bZIP (long)): 67 ± 14 nM

B6: T/G mismatch TTAt (dsDNA)
DNA 1: CATTATGTAATG
DNA 2: CATTACGTAATG
modifications: T/G mismatch at position 6 of strand 1
- Kd (NFIL3 bZIP (long); one T/G mismatch): 290 ± 30 nM

B7: cTACGTAA (dsDNA)
DNA 1: CACTACGTAATG
DNA 2: CATTACGTAGTG
- Kd (NFIL3 bZIP (long)): 2430 ± 150 nM

B8: TTACGTAA (dsDNA)
DNA 1: CATTACGTAATG
DNA 2: CATTACGTAATG
- Kd (NFIL3 bZIP (long)): 42 ± 7 nM
- Kd (C/EBPβ bZIP): 18 ± 3 nM
- Kd (NFIL3 bZIP (short)): 52 ± 17 nM
- Kd (C/EBPα bZIP): 350 ± 30 nM
- binding result (C/EBPζ bZIP): no binding

B9: TTAaGTAA (dsDNA)
DNA 1: CATTAAGTAATG
DNA 2: CATTACTTAATG
- Kd (NFIL3 bZIP (long)): 120 ± 10 nM

B10: C/EBPζ bZIP domain (aa 88-162) (domain or fragment, human, UniProt P35638 88-162, looked up)
chain: SSLAQEEEEEDQGRTRKRKQSGHSPARAGKQRMKEKEQENERKVAQLAEENERLKQEIERLTREVEATRRALIDR
notes: human C/EBPζ, bZIP domain, residues 88-162; source: E. coli BL21 (DE3), purified (Ni-NTA, TEV, anion exchange, gel filtration); not shown: His6, N-terminal, cleaved; SUMO, N-terminal, cleaved
- stoichiometry N [2]: 2

B11: ccgCGTAA (dsDNA)
DNA 1: CACCGCGTAATG
DNA 2: CATTACGCGGTG
- Kd (NFIL3 bZIP (long)): 6890 ± 340 nM

B12: TTgCGTAA (dsDNA)
DNA 1: CATTGCGTAATG
DNA 2: CATTACGCAATG
- Kd (NFIL3 bZIP (long)): 180 ± 20 nM

B13: TGATGTAA (dsDNA)
DNA 1: GATGATGTAATC
DNA 2: GATTACATCATC
- binding result (C/EBPζ bZIP): no binding

B14: TTAmCGTAA (dsDNA)
DNA 1: CATTACGTAATG
DNA 2: CATTACGTAATG
modifications: 5-methyl-C at position 6 of the printed strand; second strand not printed (palindrome, methylation of it not stated)
- Kd (NFIL3 bZIP (long)): 590 ± 89 nM

B15: TTGCGCAA (dsDNA)
DNA 1: CATTGCGCAATG
DNA 2: CATTGCGCAATG
- Kd (NFIL3 bZIP (long)): 810 ± 70 nM
- Kd (C/EBPβ bZIP): 69 ± 9 nM
- Kd (C/EBPα bZIP): 480 ± 70 nM
- binding result (C/EBPζ bZIP): no binding
